Results from patent publication US11066482B2, “Specific plasmin inactivation by anticatalytic antibody” (priority 2017, dated 2021).

Tests used:
[1] = target: protease domain of reduced human plasmin (Homo sapiens, UniProt P00747); assay: Immunoblotting of reduced human plasmin; assay type: binding
Method: FIGS. 1A-1D show binding specificity and avidity of Pi for human plasmin. […] Relative migration of molecular standards (kDa) is shown. […] Wells of a microtiter plate were coated with native (wild-type, WT) or various microplasmin loop mutants (5 ug/ml). After blocking, Pi, a polyclonal rabbit anti-plasmin (plasmin Ab) or a non-reactive mouse (anti-digoxin, control) antibody (1 ug/ml) were added to wells. The bound antibodies (Pi, control) were detected by a secondary anti-mouse peroxidase (1:10,000) and the plasmin antibodies were detected by anti-rabbit peroxidase antibody (1:5,000) followed by TMB substrate with monitoring at A405. […] Wells of microtiter plate were coated with human plasminogen (2 ug/ml). After blocking and washing, various concentrations of purified Pi (shown) were added for 1 h. After washing the amount of antibody bound was detected by a secondary anti-mouse antibody followed by TMB substrate with monitoring at A405 nm. Data shown the means±SE of triplicate observations, experiments repeated at least twice. The data were analyzed with Graphpad Prism, r=0.95.

[2] = tested on: plasmin activity in gerbil plasma; assay: Plasmin activity in plasma after urokinase, S2251; assay type: biochemical; conditions: Pi 1 uM
Method: (§1) FIGS. 3A-3D show binding and inhibitory specificity of Pi. […] The effect of various concentrations of Pi (0-2000 nM) on clots formed with human, baboon or African green monkey plasmas. Clot lysis was measured in microtiter plates after addition of urokinase as described in Methods.
(§2) Specificity of plasmin inhibition. The effect of the Pi on different animal plasmins was examined after addition of the plasminogen activator urokinase. Various animal plasmas (5 ul) were mixed in microtiter plates in the presence of Pi (1 uM, 10 ul) or buffer, S2251 (10 ul, 0.5 mM final), urokinase (100 or 200 U) in a total volume of 100 ul with PBS. The plates were incubated at 37 deg. C. and the rate of plasmin generation was monitored by substrate cleavage at 405 nm for 1 hr.

[3] = target: T1, plasmin activity in dog plasma (Canis lupus familiaris, UniProt P80009); assay: Plasmin activity in plasma after urokinase, S2251; assay type: biochemical; conditions: Pi 1 uM
T1 construct: from tissue; host or cells: dog plasma
T1 sequence (P80009 with tags, fused parts or gaps): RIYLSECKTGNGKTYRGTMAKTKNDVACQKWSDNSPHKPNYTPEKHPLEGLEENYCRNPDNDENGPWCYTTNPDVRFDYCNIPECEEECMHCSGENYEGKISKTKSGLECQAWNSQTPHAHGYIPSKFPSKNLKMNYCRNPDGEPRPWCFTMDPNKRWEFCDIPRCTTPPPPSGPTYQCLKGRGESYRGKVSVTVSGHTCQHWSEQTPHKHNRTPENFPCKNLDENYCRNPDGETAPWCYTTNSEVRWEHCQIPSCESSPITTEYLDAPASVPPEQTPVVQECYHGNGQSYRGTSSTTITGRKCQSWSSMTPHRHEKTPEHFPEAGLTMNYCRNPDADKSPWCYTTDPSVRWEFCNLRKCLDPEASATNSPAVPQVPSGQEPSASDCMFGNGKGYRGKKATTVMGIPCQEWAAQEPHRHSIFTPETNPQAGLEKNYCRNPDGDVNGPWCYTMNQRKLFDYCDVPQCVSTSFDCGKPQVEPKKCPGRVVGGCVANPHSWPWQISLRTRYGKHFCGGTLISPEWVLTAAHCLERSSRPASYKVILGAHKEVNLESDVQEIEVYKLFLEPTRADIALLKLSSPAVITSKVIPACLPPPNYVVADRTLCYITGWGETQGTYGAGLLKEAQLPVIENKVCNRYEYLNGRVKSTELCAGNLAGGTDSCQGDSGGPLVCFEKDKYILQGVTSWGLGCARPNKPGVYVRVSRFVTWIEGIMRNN
Method: as §1, §2

[4] = target: T2, plasmin activity in pig plasma (Sus scrofa, UniProt P06867); assay: Plasmin activity in plasma after urokinase, S2251; assay type: biochemical; conditions: Pi 1 uM
T2 construct: from tissue; host or cells: pig plasma
T2 sequence (P06867 97-579 limits assumed): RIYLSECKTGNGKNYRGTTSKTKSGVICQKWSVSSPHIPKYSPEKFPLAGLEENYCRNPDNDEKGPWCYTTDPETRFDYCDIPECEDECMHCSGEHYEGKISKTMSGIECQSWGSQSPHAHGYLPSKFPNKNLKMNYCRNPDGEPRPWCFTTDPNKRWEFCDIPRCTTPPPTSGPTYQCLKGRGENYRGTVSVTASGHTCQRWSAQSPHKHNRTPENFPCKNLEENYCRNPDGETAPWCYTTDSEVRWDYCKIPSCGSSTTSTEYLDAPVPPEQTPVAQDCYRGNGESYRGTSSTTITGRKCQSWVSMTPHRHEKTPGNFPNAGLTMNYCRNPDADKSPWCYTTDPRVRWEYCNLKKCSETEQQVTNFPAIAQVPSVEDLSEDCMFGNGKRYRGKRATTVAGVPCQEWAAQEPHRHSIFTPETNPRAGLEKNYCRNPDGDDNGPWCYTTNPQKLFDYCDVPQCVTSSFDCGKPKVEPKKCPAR
T2 sequence (P06867 580-809 limits assumed): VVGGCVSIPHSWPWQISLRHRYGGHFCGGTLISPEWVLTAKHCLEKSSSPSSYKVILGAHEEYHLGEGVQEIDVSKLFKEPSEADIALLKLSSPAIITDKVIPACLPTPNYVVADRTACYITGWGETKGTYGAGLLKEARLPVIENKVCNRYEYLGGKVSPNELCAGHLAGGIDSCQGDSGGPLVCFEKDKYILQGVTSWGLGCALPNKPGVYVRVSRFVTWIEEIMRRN
Method: as §1, §2

plasmin in human plasma = target: T3, plasmin in human plasma (Homo sapiens, UniProt P00747); assay: Plasmin activity in plasma after urokinase, S2251; assay type: biochemical; conditions: Pi 1 uM
T3 construct: from tissue; host or cells: human plasma
T3 sequence (P00747 97-580 limits assumed): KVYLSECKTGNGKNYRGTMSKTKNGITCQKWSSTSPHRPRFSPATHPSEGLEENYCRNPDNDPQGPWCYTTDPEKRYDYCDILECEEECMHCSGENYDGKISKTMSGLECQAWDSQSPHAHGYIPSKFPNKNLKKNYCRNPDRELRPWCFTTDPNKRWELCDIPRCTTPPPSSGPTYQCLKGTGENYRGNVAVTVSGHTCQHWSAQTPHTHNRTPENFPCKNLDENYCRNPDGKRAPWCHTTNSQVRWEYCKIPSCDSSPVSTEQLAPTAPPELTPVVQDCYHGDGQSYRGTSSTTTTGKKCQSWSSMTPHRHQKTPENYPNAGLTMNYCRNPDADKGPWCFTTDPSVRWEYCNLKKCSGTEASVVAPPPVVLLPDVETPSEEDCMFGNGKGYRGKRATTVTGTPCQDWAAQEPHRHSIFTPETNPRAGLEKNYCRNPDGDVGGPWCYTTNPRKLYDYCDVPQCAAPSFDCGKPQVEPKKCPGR
T3 sequence (P00747 581-810 limits assumed): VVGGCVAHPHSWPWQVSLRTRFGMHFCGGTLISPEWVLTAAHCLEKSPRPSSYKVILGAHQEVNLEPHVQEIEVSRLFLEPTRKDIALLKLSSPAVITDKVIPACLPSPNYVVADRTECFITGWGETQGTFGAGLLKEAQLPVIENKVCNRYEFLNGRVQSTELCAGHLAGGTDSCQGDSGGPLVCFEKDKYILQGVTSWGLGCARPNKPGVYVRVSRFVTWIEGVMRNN
Method: as §1, §2

[5] = target: T4, plasmin activity in rat plasma (Rattus norvegicus, UniProt Q01177); assay: Plasmin activity in plasma after urokinase, S2251; assay type: biochemical; conditions: Pi 1 uM
T4 construct: from tissue; host or cells: rat plasma
T4 sequence (Q01177 97-581 limits assumed): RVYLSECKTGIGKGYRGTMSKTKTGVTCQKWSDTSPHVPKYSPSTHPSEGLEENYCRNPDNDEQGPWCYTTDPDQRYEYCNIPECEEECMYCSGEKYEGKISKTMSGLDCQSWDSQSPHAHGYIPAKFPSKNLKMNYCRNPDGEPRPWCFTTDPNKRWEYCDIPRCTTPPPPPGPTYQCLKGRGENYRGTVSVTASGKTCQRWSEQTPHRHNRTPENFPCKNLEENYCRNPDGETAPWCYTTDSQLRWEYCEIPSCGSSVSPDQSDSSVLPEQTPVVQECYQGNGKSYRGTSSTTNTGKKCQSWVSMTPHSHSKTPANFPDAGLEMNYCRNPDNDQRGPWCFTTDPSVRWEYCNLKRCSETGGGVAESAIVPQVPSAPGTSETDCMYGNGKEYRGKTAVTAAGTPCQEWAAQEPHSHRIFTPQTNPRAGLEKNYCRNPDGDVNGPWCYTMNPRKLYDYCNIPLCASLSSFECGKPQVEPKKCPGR
T4 sequence (Q01177 582-812 limits assumed): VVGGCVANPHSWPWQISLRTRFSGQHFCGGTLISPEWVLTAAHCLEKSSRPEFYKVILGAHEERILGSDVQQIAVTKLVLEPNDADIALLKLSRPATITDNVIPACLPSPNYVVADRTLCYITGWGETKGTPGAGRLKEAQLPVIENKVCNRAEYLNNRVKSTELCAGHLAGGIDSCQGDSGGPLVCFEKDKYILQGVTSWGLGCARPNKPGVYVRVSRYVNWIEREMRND
Method: as §1, §2

[6] = tested on: plasmin activity in guinea pig plasma; assay: Plasmin activity in plasma after urokinase, S2251; assay type: biochemical; conditions: Pi 1 uM
Method: as §1, §2

[7] = tested on: plasmin activity in rabbit plasma; assay: Plasmin activity in plasma after urokinase, S2251; assay type: biochemical; conditions: Pi 1 uM
Method: as §1, §2

[8] = target: T5, plasmin activity in bovine plasma (Bos taurus, UniProt P06868); assay: Plasmin activity in plasma after urokinase, S2251; assay type: biochemical; conditions: Pi 1 uM
T5 construct: from tissue; host or cells: bovine plasma
T5 sequence (P06868 104-583 limits assumed): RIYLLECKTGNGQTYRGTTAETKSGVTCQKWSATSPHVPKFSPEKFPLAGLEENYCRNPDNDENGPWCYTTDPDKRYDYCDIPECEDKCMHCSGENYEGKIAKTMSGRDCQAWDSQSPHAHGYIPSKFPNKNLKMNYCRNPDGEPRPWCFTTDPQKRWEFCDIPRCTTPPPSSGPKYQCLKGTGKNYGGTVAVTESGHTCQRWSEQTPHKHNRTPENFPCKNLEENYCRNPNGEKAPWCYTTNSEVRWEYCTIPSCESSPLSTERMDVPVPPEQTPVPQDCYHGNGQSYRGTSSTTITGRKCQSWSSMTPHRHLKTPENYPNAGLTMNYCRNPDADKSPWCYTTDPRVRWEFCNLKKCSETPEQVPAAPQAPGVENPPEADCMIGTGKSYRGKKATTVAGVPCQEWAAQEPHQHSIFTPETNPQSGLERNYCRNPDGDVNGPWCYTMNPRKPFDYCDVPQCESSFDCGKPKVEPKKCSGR
T5 sequence (P06868 584-812 limits assumed): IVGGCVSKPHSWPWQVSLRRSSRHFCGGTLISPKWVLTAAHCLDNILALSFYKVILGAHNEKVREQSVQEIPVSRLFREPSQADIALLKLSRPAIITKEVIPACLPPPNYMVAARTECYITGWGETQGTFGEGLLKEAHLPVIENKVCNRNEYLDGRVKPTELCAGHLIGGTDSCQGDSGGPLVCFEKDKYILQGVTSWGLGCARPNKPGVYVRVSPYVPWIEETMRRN
Method: as §1, §2

[9] = tested on: plasmin activity in cat plasma; assay: Plasmin activity in plasma after urokinase, S2251; assay type: biochemical; conditions: Pi 1 uM
Method: as §1, §2

[10] = tested on: plasmin activity in hamster plasma; assay: Plasmin activity in plasma after urokinase, S2251; assay type: biochemical; conditions: Pi 1 uM
Method: as §1, §2

fibrinolytic bleeding = assay: Fibrinolytic bleeding assay in vivo (humanized tail bleeding model); parameters: species or system mice; conditions: Pi 100 nmole/kg intravenously, mice given human plasminogen and plasminogen activator
Method: Anesthetized mice were treated in a randomized, blinded fashion with saline (Control), Pi (100 nmole/kg) or EACA (510 micromole/kg) intravenously. Human plasminogen (100 nmole/kg) and plasminogen activator (80,000 IU/kg) were given over 60 min. Tail bleeding was initiated 40 min. after the infusion. Tails were pre-warmed for 5 mins in 3 mL of 37° C. saline and bleeding was monitored as described.36,37 N=5-6, Means±SE are shown. *p<0.05, **p<0.01; ns, not significant. Kruskal Wallis one way ANOVA, Dunn's corrections.
Fibrinolytic bleeding assays in vivo. Anesthetized mice were treated in a randomized, blinded fashion with saline (Control), Pi (100 nmole/kg) or EACA (510 micromole/kg). Human plasminogen (100 nmole/kg) and plasminogen activator (80,000 IU/kg) were given over 60 min. Tail bleeding started 40 min. after the infusion. Tails were pre-warmed for 5 mins in 3 mL of 37° C. saline as described.(27, 28).
Suppression of fibrinolytic bleeding in vivo. The potential utility of the Pi for suppression of fibrinolytic bleeding was examined in vivo in randomized, blinded studies of surgical arterial and venous hemorrhage.

chymotrypsin = assay: Specificity of Pi binding (ELISA); conditions: plate coated 10 ug/ml
Method: as §1
(§3) Specificity of Pi binding. The binding of the Pi to different serine proteases was assessed by ELISA in 96-well plates coated with human plasminogen, mouse plasminogen, tPA, trypsin or chymotrypsin (10 ug/ml) and blocked with 1% BSA. After incubation and washing, Pi or control monoclonal antibody supernatants (anti-digoxin) were added to the wells for 1 h in triplicate. Then goat anti mouse antibody conjugated with HRP (1:5000, Sc-2005, Santa Cruz) was then added. The plate was washed after incubation for 1 h. TMB was added to the wells and absorbance at 370 nm was recorded.

trypsin = assay: Specificity of Pi binding (ELISA); conditions: plate coated 10 ug/ml
Method: as §1, §3

mouse plasminogen = mouse plasminogen (Mus musculus, UniProt P20918); assay: Specificity of Pi binding (ELISA); conditions: plate coated 10 ug/ml
Sequence of mouse plasminogen (P20918 20-812 limits assumed): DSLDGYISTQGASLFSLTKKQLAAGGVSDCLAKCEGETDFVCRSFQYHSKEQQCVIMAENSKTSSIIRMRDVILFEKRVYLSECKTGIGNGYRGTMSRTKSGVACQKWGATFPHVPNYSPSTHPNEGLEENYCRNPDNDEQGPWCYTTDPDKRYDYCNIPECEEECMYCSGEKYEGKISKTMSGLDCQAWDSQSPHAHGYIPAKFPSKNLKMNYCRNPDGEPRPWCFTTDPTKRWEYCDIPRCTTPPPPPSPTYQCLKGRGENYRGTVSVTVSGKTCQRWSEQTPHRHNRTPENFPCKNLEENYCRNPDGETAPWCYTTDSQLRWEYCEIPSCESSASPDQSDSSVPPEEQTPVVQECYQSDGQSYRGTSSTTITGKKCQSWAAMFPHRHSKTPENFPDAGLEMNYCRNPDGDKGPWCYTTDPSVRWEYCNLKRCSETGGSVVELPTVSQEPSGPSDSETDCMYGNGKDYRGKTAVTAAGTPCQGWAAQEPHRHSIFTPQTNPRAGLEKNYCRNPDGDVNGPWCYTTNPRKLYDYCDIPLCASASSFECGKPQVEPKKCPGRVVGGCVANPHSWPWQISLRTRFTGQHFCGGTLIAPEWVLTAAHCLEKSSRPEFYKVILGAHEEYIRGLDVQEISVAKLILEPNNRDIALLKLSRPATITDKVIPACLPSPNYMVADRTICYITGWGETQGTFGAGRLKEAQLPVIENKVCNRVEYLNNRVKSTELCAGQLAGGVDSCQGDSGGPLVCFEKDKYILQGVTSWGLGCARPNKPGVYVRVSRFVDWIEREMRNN
Method: as §1, §3

human tPA = human tPA (Homo sapiens, UniProt P00750); assay: Specificity of Pi binding (ELISA); conditions: plate coated 10 ug/ml
Sequence of human tPA (P00750 36-562): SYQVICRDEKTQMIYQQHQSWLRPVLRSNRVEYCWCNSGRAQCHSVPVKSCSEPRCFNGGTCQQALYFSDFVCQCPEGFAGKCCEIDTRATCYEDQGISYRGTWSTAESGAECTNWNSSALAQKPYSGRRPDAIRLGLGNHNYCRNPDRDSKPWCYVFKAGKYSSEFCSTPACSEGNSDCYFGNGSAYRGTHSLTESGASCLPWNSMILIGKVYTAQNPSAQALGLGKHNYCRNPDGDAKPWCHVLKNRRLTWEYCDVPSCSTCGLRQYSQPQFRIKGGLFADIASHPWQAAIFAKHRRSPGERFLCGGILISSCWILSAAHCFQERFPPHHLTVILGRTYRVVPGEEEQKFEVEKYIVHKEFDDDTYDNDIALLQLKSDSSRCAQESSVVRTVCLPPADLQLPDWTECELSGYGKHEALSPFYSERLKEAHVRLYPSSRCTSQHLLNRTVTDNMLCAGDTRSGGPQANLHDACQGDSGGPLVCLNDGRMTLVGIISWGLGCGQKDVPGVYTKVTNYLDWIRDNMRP
Method: as §1, §3

Sequence of protease domain of reduced human plasmin (P00747 581-810 limits assumed): as the sequence (P00747 581-810 limits assumed) above

effect on plasmin activity generated by urokinase [2]: did not inhibit plasmin activity
effect on plasmin activity generated by urokinase [3]: did not inhibit plasmin activity
effect on plasmin activity generated by urokinase [4]: did not inhibit plasmin activity
effect on plasmin activity generated by urokinase (plasmin in human plasma): suppressed plasmin
effect on plasmin activity generated by urokinase [5]: did not inhibit plasmin activity
effect on plasmin activity generated by urokinase [6]: did not inhibit plasmin activity
effect on plasmin activity generated by urokinase [7]: did not inhibit plasmin activity
effect on plasmin activity generated by urokinase [8]: did not inhibit plasmin activity
effect on plasmin activity generated by urokinase [9]: did not inhibit plasmin activity
effect on plasmin activity generated by urokinase [10]: did not inhibit plasmin activity
specific binding vs control anti-digoxin antibody (chymotrypsin): no specific binding
specific binding vs control anti-digoxin antibody (trypsin): no specific binding
specific binding vs control anti-digoxin antibody (mouse plasminogen): no specific binding
specific binding vs control anti-digoxin antibody (human tPA): no specific binding
B1: Pi: mouse monoclonal antibody plasmin inhibitor binding plasmin protease domain loops 4 and 5; LC SEQ ID NO:1, HC SEQ ID NO:4 (antibody)
heavy: EVKLLESGGGLVQPGGSLKLSCAASGFDFSRYWMSWVRQAPGKGLEWIGEINPDSSTINYTPSLKDKFIISRDNAKNSLYLQMSKVRSEDTALYYCASYCGYSYDALDCWGQGTSVTVSSAKTTPPSVYPLAPGSAAQTNSMVTLGCLVKGYFPEPVTVTWNSGSLSSGVHTFPAVLQSDLYTLSSSVTVPSSTWPSETVTCNVAHPASSTKVDKKIVPRDCGCKPCICTVPEVSSVFIFPPKPKDVLTITLTPKVTCVVVDISKDDPEVQFSWFVDDVEVHTAQTQPREEQFNSTFRSVSELPIMHQDWLNGKEFKCRVNSVAFPAPIEKTISKTKGRPKAPQVYTIPPPKEQMAKDKVSLTCMITDFFPEDITVEWQWNGQPAENYKNTQPIMDTDGSYFVYGKLNVQKSNWEAGNTFTCSVLHEGLHNHHTEKSLSHSPGK
light: DIQMTQSPSSLSASLGGKVSITCKASQDINKYISWYQHKPGKGPRLLIHYTSTLQPGIPSRFSGSGSGRDYSFSISNLEPEDIATYYCLQYDNLYTFGGGTKLEIKRADAAPTVSIFPPSSEQLTSGGASVVCFLNNFYPKDINVKWKIDGSERQNGVLNSWTDQDSKDSTYSMSSTLTLTKDEYERHNSYTCEATHKTSTSPIVKSFNWNEC
binding by immunoblotting [1]: bound specifically to the protease domain of plasmin
suppression of bleeding time vs controls (fibrinolytic bleeding): > 80%
suppression of blood loss vs controls (fibrinolytic bleeding): > 85%
